According to patent US20230357348A1 (AstraZeneca / MedImmune, published 2023):
Starred links: 1 amine or outer side, 2 acyl side, 3 side chain; linkers in the order of their positions; H or OH if unused. Non-standard residues stand in square brackets, D forms with d. Groups on a side chain read outwards from the residue. No end group written: not given here. *: point of attachment. C18 diacid = O=C(O)CCCCCCCCCCCCCCCCC(=O)*; γGlu = O=C(O)[C@H](CCC(=O)[*:2])N[*:1]; αMeF = C[C@](N)(Cc1ccccc1)C(=O)O; AEEA = NCCOCCOCC(=O)O; Aib = CC(C)(N)C(=O)O

Legend:
[1] = molecular target: human GLP-1 receptor (hGLP-1R) (human, UniProt P43220 24-463); test: cell-based or functional assay
[2] = molecular target: human glucagon receptor (hGCGR) (human, UniProt P47871 26-477); test: cell-based or functional assay
Chain of human glucagon receptor (hGCGR) (P47871 26-477): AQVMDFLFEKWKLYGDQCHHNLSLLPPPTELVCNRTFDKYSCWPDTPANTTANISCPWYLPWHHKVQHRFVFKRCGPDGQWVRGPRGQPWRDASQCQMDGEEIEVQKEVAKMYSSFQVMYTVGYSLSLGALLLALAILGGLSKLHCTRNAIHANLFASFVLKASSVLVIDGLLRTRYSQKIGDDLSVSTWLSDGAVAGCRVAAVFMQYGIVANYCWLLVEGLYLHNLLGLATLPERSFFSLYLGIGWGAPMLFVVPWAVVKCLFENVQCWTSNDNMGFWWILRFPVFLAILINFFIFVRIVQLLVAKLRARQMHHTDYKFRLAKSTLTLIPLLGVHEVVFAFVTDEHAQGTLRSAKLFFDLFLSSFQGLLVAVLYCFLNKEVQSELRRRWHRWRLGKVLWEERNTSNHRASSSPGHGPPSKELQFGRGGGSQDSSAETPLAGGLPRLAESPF

hGLP-1R EC50 (pM) [1] [pM]	hGluc-R EC50 (pM) [2] [pM]	Binder
59.4	108	H[Aib]QGTFTSDVSK[αMeF]LDSK([AEEA-AEEA-γGlu-C18 diacid])RARDFVAWLLE[Aib]G-OH (N-terminus assumed; SMILES CC(C)C[C@H](NC(=O)[C@H](Cc1c[nH]c2ccccc12)NC(=O)[C@H](C)NC(=O)[C@@H](NC(=O)[C@H](Cc1ccccc1)NC(=O)[C@H](CC(=O)O)NC(=O)[C@H](CCCNC(=N)N)NC(=O)[C@H](C)NC(=O)[C@H](CCCNC(=N)N)NC(=O)[C@H](CCCCNC(=O)COCCOCCNC(=O)COCCOCCNC(=O)CC[C@H](NC(=O)CCCCCCCCCCCCCCCCC(=O)O)C(=O)O)NC(=O)[C@H](CO)NC(=O)[C@H](CC(=O)O)NC(=O)[C@H](CC(C)C)NC(=O)[C@](C)(Cc1ccccc1)NC(=O)[C@H](CCCCN)NC(=O)[C@H](CO)NC(=O)[C@@H](NC(=O)[C@H](CC(=O)O)NC(=O)[C@H](CO)NC(=O)[C@@H](NC(=O)[C@H](Cc1ccccc1)NC(=O)[C@@H](NC(=O)CNC(=O)[C@H](CCC(N)=O)NC(=O)C(C)(C)NC(=O)[C@@H](N)Cc1c[nH]cn1)[C@@H](C)O)[C@@H](C)O)C(C)C)C(C)C)C(=O)N[C@@H](CC(C)C)C(=O)N[C@@H](CCC(=O)O)C(=O)NC(C)(C)C(=O)NCC(=O)O) [Peptide 142]
45.2	702	H[Aib]QGTFTSDVSK[αMeF]LDSK([γGlu-γGlu-AEEA-AEEA-γGlu-γGlu-C18 diacid])RARDFVRWLLE[Aib]G-OH (N-terminus assumed; SMILES CC(C)C[C@H](NC(=O)[C@H](Cc1c[nH]c2ccccc12)NC(=O)[C@H](CCCNC(=N)N)NC(=O)[C@@H](NC(=O)[C@H](Cc1ccccc1)NC(=O)[C@H](CC(=O)O)NC(=O)[C@H](CCCNC(=N)N)NC(=O)[C@H](C)NC(=O)[C@H](CCCNC(=N)N)NC(=O)[C@H](CCCCNC(=O)CC[C@H](NC(=O)CC[C@H](NC(=O)COCCOCCNC(=O)COCCOCCNC(=O)CC[C@H](NC(=O)CC[C@H](NC(=O)CCCCCCCCCCCCCCCCC(=O)O)C(=O)O)C(=O)O)C(=O)O)C(=O)O)NC(=O)[C@H](CO)NC(=O)[C@H](CC(=O)O)NC(=O)[C@H](CC(C)C)NC(=O)[C@](C)(Cc1ccccc1)NC(=O)[C@H](CCCCN)NC(=O)[C@H](CO)NC(=O)[C@@H](NC(=O)[C@H](CC(=O)O)NC(=O)[C@H](CO)NC(=O)[C@@H](NC(=O)[C@H](Cc1ccccc1)NC(=O)[C@@H](NC(=O)CNC(=O)[C@H](CCC(N)=O)NC(=O)C(C)(C)NC(=O)[C@@H](N)Cc1c[nH]cn1)[C@@H](C)O)[C@@H](C)O)C(C)C)C(C)C)C(=O)N[C@@H](CC(C)C)C(=O)N[C@@H](CCC(=O)O)C(=O)NC(C)(C)C(=O)NCC(=O)O) [Peptide 144]
19.1	32.6	H[Aib]QGTFTSDVSK[αMeF]LDSK([AEEA-AEEA-γGlu-C18 diacid])RARDFVQWLLE[Aib]G-OH (N-terminus assumed; SMILES CC(C)C[C@H](NC(=O)[C@H](Cc1c[nH]c2ccccc12)NC(=O)[C@H](CCC(N)=O)NC(=O)[C@@H](NC(=O)[C@H](Cc1ccccc1)NC(=O)[C@H](CC(=O)O)NC(=O)[C@H](CCCNC(=N)N)NC(=O)[C@H](C)NC(=O)[C@H](CCCNC(=N)N)NC(=O)[C@H](CCCCNC(=O)COCCOCCNC(=O)COCCOCCNC(=O)CC[C@H](NC(=O)CCCCCCCCCCCCCCCCC(=O)O)C(=O)O)NC(=O)[C@H](CO)NC(=O)[C@H](CC(=O)O)NC(=O)[C@H](CC(C)C)NC(=O)[C@](C)(Cc1ccccc1)NC(=O)[C@H](CCCCN)NC(=O)[C@H](CO)NC(=O)[C@@H](NC(=O)[C@H](CC(=O)O)NC(=O)[C@H](CO)NC(=O)[C@@H](NC(=O)[C@H](Cc1ccccc1)NC(=O)[C@@H](NC(=O)CNC(=O)[C@H](CCC(N)=O)NC(=O)C(C)(C)NC(=O)[C@@H](N)Cc1c[nH]cn1)[C@@H](C)O)[C@@H](C)O)C(C)C)C(C)C)C(=O)N[C@@H](CC(C)C)C(=O)N[C@@H](CCC(=O)O)C(=O)NC(C)(C)C(=O)NCC(=O)O) [Peptide 143]
264	392	H[Aib]QGTFTSDVSK[αMeF]LDSK([AEEA-AEEA-γGlu-C18 diacid])RAQDFVAWLLE[Aib]G-OH (N-terminus assumed; SMILES CC(C)C[C@H](NC(=O)[C@H](Cc1c[nH]c2ccccc12)NC(=O)[C@H](C)NC(=O)[C@@H](NC(=O)[C@H](Cc1ccccc1)NC(=O)[C@H](CC(=O)O)NC(=O)[C@H](CCC(N)=O)NC(=O)[C@H](C)NC(=O)[C@H](CCCNC(=N)N)NC(=O)[C@H](CCCCNC(=O)COCCOCCNC(=O)COCCOCCNC(=O)CC[C@H](NC(=O)CCCCCCCCCCCCCCCCC(=O)O)C(=O)O)NC(=O)[C@H](CO)NC(=O)[C@H](CC(=O)O)NC(=O)[C@H](CC(C)C)NC(=O)[C@](C)(Cc1ccccc1)NC(=O)[C@H](CCCCN)NC(=O)[C@H](CO)NC(=O)[C@@H](NC(=O)[C@H](CC(=O)O)NC(=O)[C@H](CO)NC(=O)[C@@H](NC(=O)[C@H](Cc1ccccc1)NC(=O)[C@@H](NC(=O)CNC(=O)[C@H](CCC(N)=O)NC(=O)C(C)(C)NC(=O)[C@@H](N)Cc1c[nH]cn1)[C@@H](C)O)[C@@H](C)O)C(C)C)C(C)C)C(=O)N[C@@H](CC(C)C)C(=O)N[C@@H](CCC(=O)O)C(=O)NC(C)(C)C(=O)NCC(=O)O) [Peptide 141]
22.6	4590	H[Aib]QGTFTSDVSK[αMeF]LDSK([AEEA-AEEA-γGlu-C18 diacid])RAQDFVRWLASRGI-OH (N-terminus assumed; SMILES CC[C@H](C)[C@H](NC(=O)CNC(=O)[C@H](CCCNC(=N)N)NC(=O)[C@H](CO)NC(=O)[C@H](C)NC(=O)[C@H](CC(C)C)NC(=O)[C@H](Cc1c[nH]c2ccccc12)NC(=O)[C@H](CCCNC(=N)N)NC(=O)[C@@H](NC(=O)[C@H](Cc1ccccc1)NC(=O)[C@H](CC(=O)O)NC(=O)[C@H](CCC(N)=O)NC(=O)[C@H](C)NC(=O)[C@H](CCCNC(=N)N)NC(=O)[C@H](CCCCNC(=O)COCCOCCNC(=O)COCCOCCNC(=O)CC[C@H](NC(=O)CCCCCCCCCCCCCCCCC(=O)O)C(=O)O)NC(=O)[C@H](CO)NC(=O)[C@H](CC(=O)O)NC(=O)[C@H](CC(C)C)NC(=O)[C@](C)(Cc1ccccc1)NC(=O)[C@H](CCCCN)NC(=O)[C@H](CO)NC(=O)[C@@H](NC(=O)[C@H](CC(=O)O)NC(=O)[C@H](CO)NC(=O)[C@@H](NC(=O)[C@H](Cc1ccccc1)NC(=O)[C@@H](NC(=O)CNC(=O)[C@H](CCC(N)=O)NC(=O)C(C)(C)NC(=O)[C@@H](N)Cc1c[nH]cn1)[C@@H](C)O)[C@@H](C)O)C(C)C)C(C)C)C(=O)O) [Peptide 145]
